The text below walks through data of PMC4880913.

pKd: −log10 of the molar value.

For one data set, the target named is T1, p63-DBD (UniProt Q9H3D4).
T1 sequence: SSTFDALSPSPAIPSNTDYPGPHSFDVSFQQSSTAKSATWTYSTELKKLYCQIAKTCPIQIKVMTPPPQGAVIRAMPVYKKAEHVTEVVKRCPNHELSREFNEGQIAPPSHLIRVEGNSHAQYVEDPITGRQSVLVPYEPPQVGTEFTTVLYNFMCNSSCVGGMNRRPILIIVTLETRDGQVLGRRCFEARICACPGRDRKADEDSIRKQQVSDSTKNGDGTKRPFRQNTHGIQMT
The data set is described as follows: fluorescence polarization. Conditions: FP: 100 nM 5'-fluorescein dsDNA, 10 mM sodium phosphate pH 7.2, 1 mM DTT, temperature not stated; NMR: 1 mM sodium phosphate pH 7.2, 100 mM NaCl, 5 mM DTT …. (In fluorescence polarisation assays a small probe gives low polarisation when free and higher when bound to something large.)

In a further data set the target is p53 DBD (Homo sapiens) (UniProt P04637). The conditions noted are these: cited from earlier work.
The target of data set [1] is fluorescein-labeled BclxLΔTM (human) (UniProt Q07817). The experiment in a line: fluorescence polarisation; 100 nM N-terminally fluorescein-labeled BclxLΔTM titrated with increasing amounts of p63-DBD; 10 mM sodium phosphate pH 7.2, 1 mM DTT; one-site or cooperative binding model; triplicate.
Chain of fluorescein-labeled BclxLΔTM (human) (Q07817 1-212, stated change not applied): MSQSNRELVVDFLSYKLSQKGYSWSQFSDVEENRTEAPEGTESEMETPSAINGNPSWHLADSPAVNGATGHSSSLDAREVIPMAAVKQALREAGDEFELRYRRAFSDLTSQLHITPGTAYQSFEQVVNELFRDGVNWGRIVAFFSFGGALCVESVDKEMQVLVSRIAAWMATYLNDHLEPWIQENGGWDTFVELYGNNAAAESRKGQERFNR

Chain of BclxL (Q07817 whole entry): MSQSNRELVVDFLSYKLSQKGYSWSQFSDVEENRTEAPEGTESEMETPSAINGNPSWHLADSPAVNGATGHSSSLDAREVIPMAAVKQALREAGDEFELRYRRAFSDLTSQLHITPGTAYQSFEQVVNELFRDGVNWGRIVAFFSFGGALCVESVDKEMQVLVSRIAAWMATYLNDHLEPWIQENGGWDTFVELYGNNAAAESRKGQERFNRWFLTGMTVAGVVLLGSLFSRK
Chain of p53 DBD (Homo sapiens) (P04637 94-312): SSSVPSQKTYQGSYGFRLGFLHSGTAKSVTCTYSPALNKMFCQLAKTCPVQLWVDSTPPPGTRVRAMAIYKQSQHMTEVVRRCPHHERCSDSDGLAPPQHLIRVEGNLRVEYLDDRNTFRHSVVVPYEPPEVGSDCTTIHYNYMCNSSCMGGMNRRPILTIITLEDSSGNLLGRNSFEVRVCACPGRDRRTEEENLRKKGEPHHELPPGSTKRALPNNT

As for Bax response element, the binding signal (fold lower affinity than p53-DBD) with p63-DBD was 2. As for BclxL (from UniProt Q07817), the negative logarithm of the Kd (pKd) – broadly, −log10 of the Kd, conventionally taken in molar units – with p53 DBD (Homo sapiens) is 5.26. Take Jag-1 response element: the binding signal (fold lower affinity than p53-DBD) with p63-DBD came to 2. In the case of p21 response element, the binding signal (fold lower affinity than p53-DBD) in the data set with p63-DBD came to 2.

As for “p63 DNA binding domain (from UniProt Q9H3D4 153-388) (domain or fragment)”, the negative-log Kd (pKd) in data set [1] is 4.42.
